Experiment [1] has as its target collagen α1α1α2(IV) purified from conditioned culture medium of WT PFHR9 cells (mouse (endogenous in PFHR9)). Kind of experiment: rotary shadow electron microscopy; purified collagen α1α1α2(IV) (about 100 μg/ml) in 0.2 M acetic acid, 70% glycerol, sprayed on mica, carbon/platinum shadowed; molecules counted (WT n = 690, LH3 KO n = 295); hexamers = two heterotrimers, dodecamers = four heterotrimers.

In experiment [2] the target is collagen α1α1α2(IV) purified from conditioned culture medium of LH3 KO PFHR9 cells (mouse (endogenous in PFHR9)). Described as above.
Experiment [3] concerns the target T1, collagen α1α1α2(IV) purified from conditioned culture medium of LH3 KO PFHR9 cells (mouse (endogenous in PFHR9), more unmodified lysines (significantly fewer hydroxylysines)); high occupancy of galactosyl Hyl but not glucosyl galactosyl Hyl; prolyl 4 hydroxylation reduced | more unmodified lysines (significantly …). Kind of experiment: SPR.
Experiment [4] deals with T2, collagen α1α1α2(IV) purified from conditioned culture medium of WT PFHR9 cells (mouse (endogenous in PFHR9), hydroxylysines, almost fully modified to glucosyl galactosyl Hyl; 4-hydroxyproline; 3-hydroxyproline | hydroxylysines, almost fully modified to glucosyl galactosyl Hyl; 4-hydroxyproline; …). Kind of experiment: SPR. A general note: Surface plasmon resonance follows binding to a sensor surface in real time, without labels.

Experiment [5] addresses T1, collagen α1α1α2(IV) purified from …. The experiment in a line: SPR. This is another data set of the same source.
Experiment [6] has as its target T2, collagen α1α1α2(IV) purified from …. Kind of experiment: SPR. The source holds these as a separate data set.

T1 sequence (P02463 28-1669, chain 1 of 2): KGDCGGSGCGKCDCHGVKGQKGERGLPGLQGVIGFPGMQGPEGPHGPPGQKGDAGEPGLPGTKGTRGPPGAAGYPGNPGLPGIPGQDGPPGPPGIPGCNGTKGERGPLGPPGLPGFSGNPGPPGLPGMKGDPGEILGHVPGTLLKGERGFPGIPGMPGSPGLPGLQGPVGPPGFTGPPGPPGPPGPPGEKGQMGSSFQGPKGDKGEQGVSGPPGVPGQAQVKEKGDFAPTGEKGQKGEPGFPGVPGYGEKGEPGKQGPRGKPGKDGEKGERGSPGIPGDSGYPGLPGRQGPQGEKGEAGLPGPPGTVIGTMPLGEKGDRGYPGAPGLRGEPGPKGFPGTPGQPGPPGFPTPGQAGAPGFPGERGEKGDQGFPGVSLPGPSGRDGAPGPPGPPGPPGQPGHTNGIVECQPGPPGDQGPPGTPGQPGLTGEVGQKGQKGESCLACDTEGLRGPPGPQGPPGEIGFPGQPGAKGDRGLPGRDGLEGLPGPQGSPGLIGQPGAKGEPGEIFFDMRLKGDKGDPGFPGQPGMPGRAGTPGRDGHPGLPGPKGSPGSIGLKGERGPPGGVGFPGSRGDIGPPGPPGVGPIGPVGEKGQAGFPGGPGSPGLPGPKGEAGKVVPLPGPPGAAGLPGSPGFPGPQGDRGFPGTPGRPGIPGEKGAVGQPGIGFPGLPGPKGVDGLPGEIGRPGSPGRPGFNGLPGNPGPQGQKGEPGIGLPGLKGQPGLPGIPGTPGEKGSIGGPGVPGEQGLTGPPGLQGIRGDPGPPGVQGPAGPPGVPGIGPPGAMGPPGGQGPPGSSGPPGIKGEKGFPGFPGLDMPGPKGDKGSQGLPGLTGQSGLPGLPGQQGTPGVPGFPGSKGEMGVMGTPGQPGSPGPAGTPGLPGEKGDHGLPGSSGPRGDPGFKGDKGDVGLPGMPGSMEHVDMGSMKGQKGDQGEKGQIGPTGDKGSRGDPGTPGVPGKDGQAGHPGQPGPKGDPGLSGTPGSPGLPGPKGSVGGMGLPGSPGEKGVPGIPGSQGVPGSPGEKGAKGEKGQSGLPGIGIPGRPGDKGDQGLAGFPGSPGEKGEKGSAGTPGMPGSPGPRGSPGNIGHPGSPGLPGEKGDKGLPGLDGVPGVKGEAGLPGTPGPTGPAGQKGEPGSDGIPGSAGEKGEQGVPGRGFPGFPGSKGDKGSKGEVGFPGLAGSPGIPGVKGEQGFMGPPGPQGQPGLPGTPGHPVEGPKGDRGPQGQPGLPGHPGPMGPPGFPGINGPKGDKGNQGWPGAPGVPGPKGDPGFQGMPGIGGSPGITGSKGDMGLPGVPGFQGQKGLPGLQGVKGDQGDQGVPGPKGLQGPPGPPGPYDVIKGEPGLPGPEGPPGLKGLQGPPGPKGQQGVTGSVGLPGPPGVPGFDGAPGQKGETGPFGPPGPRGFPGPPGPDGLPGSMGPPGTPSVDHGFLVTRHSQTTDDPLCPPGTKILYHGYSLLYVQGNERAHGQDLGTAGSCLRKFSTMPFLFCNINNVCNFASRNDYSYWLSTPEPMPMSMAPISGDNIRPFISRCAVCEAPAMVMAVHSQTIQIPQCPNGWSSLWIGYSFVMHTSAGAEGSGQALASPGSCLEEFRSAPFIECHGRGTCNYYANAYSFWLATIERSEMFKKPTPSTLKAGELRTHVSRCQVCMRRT
T1 sequence (P08122 26-1707, chain 2 of 2, further chain): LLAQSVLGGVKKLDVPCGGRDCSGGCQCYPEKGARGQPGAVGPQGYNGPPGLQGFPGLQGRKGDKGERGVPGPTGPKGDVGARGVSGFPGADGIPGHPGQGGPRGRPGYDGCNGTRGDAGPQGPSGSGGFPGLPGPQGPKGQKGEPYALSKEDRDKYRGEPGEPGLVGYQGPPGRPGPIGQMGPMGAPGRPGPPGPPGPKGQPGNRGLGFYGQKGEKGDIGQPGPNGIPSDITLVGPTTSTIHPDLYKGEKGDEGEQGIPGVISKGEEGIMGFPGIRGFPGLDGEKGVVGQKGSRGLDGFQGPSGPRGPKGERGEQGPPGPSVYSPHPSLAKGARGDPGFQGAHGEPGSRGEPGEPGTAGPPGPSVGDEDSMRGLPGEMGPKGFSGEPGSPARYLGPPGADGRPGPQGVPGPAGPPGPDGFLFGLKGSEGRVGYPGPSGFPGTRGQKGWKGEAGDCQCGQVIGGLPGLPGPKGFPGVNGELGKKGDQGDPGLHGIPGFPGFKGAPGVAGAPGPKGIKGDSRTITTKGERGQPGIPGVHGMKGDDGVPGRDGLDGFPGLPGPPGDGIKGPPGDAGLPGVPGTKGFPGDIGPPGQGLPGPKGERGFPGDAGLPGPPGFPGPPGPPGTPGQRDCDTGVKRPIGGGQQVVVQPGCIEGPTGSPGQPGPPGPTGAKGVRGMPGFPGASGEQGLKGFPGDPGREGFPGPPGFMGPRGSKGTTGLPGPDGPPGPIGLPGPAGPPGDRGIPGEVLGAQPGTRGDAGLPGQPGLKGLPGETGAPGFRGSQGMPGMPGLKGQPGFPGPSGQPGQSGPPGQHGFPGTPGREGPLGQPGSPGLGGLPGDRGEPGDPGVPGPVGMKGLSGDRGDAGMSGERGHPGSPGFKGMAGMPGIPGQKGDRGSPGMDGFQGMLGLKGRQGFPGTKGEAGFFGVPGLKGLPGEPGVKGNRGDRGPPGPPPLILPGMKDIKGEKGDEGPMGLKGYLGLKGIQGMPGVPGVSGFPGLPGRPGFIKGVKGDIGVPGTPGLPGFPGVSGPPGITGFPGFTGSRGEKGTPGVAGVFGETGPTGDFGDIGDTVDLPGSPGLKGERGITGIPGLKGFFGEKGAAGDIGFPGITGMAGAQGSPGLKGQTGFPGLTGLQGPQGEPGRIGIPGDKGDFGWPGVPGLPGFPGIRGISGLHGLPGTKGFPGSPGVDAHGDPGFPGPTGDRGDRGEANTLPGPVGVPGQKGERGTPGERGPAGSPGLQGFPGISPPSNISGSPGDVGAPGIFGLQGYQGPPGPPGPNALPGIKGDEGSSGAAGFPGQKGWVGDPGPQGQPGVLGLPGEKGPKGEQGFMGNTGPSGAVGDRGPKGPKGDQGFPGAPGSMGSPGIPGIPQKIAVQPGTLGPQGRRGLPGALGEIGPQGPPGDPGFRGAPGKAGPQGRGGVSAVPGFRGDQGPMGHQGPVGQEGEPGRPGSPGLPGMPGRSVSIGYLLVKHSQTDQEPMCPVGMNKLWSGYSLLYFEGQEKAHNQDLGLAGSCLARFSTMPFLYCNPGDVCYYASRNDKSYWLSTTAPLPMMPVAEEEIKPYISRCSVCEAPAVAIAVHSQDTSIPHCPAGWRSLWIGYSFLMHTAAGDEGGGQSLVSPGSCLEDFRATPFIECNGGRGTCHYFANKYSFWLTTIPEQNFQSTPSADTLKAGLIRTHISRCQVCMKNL
T2 sequence (P02463 28-1669, chain 1 of 2): as the sequence (P02463 28-1669, chain 1 of 2) above
T2 sequence (P08122 26-1707, chain 2 of 2, further chain): as the sequence (P08122 26-1707, chain 2 of 2, further chain) above

In the case of “collagen α1α1α2(IV) purified from conditioned culture medium of WT PFHR9 cells (complex)”, in experiment [1], the percent of molecules seen as dodecamers (four heterotrimers) turned out to be 9% and the percent of molecules seen as hexamers (two heterotrimers) worked out at 8.5%.

“collagen α1α1α2(IV) purified from conditioned culture medium of LH3 KO PFHR9 cells (complex)” displayed a percent of molecules seen as shortened hexamers (two heterotrimers) in experiment [2] of 7.8%.

B1: heat shock protein 47 (natural protein)
chain: VPSEDRKLSDKATTLADRSTTLAFNLYHAMAKDKNMENILLSPVVVASSLGLVSLGGKATTASQAKAVLSADKLNDDYVHSGLSELLNEVSNSTARNVTWKIGNRLYGPASINFADDFVKNSKKHYNYEHSKINFRDKRSALKSINEWAAQTTDGKLPEVTKDVEKTDGALIVNAMFFKPHWDEKFHHKMVDNRGFMVTRSYTVGVPMMHRTGLYNYYDDEAEKLQVVEMPLAHKLSSMIFIMPNHVEPLERVEKLLNREQLKTWASKMKKRSVAISLPKVVLEVSHDLQKHLADLGLTEAIDKTKADLSKISGKKDLYLSNVFHAAALEWDTDGNPYDADIYGREEMRNPKLFYADHPFIFMIKDSKTNSILFIGRLVRPKGDKMRDEL
Consider B1, for which the figures for the Kd in experiment [3] and in experiment [4] were 116 nM and 17.9 nM, respectively. For the same molecule, the koff – broadly, a measure of how fast the partners let go of each other – in experiment [5] is 0.107 s⁻¹; in experiment [6] it was 0.0226 s⁻¹.

These data come from PMC9761383 (2022).
